Measured values: the nanobody polyreactivity screen of Harvey et al. (2022)

Assay: yeast display, Sf9 membrane polyspecificity reagent, FACS + sequencing; frameworks hold sequencing errors
How it was run: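 Polyreactivity labels are assigned by the sorting gate from which each nanobody was recovered. The gates were low and high (top ~1%), set on anti-HA fluorescence for expression and streptavidin fluorescence for reagent binding. Before sorting, galactose-induced (36–48 hours) yeast display cells were stained for 1 hour at 4 °C with 10% biotinylated, detergent-solubilized Sf9 membrane reagent.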

| Sequence | polyreactivity (PSR sort gate) |
| --- | --- |
| QVQLVESGGGLVQAGGSLRLSCAASGSIFLVTAMGWYRQAPGKERELVAAITFGGDSTYYADSVKGRFTISRDNAKNTVYLQMNSLKPEDTAVYYCAADPSPYGDEYDYWGQGTQVTVSS | low polyreactivity |
| PVQLVESGGGLVQAGGSLRLSCAASGSTFRFYTMGWYRQAPGKERELVAAISGSGGSTYYADSVKGRFTISRDNAKNTVYLQMNSLIPEDPAVYFCAADKSRNASHRGYWGQGTQVTVSS | low polyreactivity |
| QVQLVESGGGLVQAGGSLRLICAASGFTFPPYAMGGYRQAPGKERELVAAITSSGGRTYYAYSVKGRFTISRDNAKNTVYLQMNSLKPEDTAFYYCAAYGRFARMNYWGQGTQVTVSS | high polyreactivity |
| QVQLVESGGGLVQAGGSLRLSCAASGSTFSDYAMGWYRQAPGKERELVAAISGGGTTDYADSVKGRFTISRDNAKNTVYLQMNSLKPEDTAVYYCNKPVEGSFLPYSYLRFDYWGQGTQVTVSS | low polyreactivity |
| QDQLVDSGGGLVQAGGSLRLSCAASGFNFGYYAMGWYRQAPRKERELVAAISRSGGRTYYADSVKGRFTISRDNAKNTVYLQMNILNPEDTAVYYCNARHYLSAYDYWGQGTQVTVSS | high polyreactivity |
| QVQLVESGGGLVQAGGSLRLSCAASGRIFGRYAMGWYRQAPGKERELVAVISARGARTYYADSVKGRFTISRDNAKNTVYLQMNSLKPEDTAVYYCAVDQYATDDYWGQGTQVTVSS | high polyreactivity |
| QVQLVESGGGLVQAGGSLRLSCAASGSTFRYYTMGWYRQAPGKERELVAAITWSGGSTYYADSVKGRFTISRDNAKNTVYLQMNSLKPEDTAVYYCAADRYSYGSNGYPRFEYYYWGQGTQVTVSS | high polyreactivity |
| QVQLVESGGGLVQAGGSLRLSCAASGSIFYPYAMGWYRQAPGKERELVAAITTGGGSTYADSVKGRFTISRDNAKNTVYLQMNSLKPEDTAVYYCNTDEYDIGSVYTLWEYDYWGQGTQVTVSS | low polyreactivity |
| QVQLVESGGGLVQAGGSLRLSCAASGGTFAEYVMGRYRQAPGKERELVAAIDWSGGSTYYADSVKGRFTISRDNAKNTVYFQMNSLKPEDTALYYCAKGPGYGFYKLMSYDSWGQGTQVTVSS | low polyreactivity |
| QVQLVESGGGLVQAGGSLRLSCAASGYIYYYNGMGWYRQAPGKERELVADISRRGGSTYYADSVKGRFTISRDNAKNTESLQMNSLKPEDTAVYYCNARARSAFSYDSWGQGTQVTVSS | high polyreactivity |
| QVQLVESGGGLVQAGGSLRLSCAASGIIFYYYAMGWYRQAPGKERELVAAISWSGGSTYYADSVKGRFTISRDNAKNTVYLQMNSLKPDDTAVYYCAAAFSPGWWSRHTYDYDYWGQGTQVTVSS | high polyreactivity |
| QVQLVESGGGLVQAGGSLRLSCAASGSIFYPNAMGWYRQAPGKERELVATIRRRGGSTYYADSVKGRFTISRDNAKNTVYLQMHSLKPEDTAVDYCAVGSPTPYRALDLYDYWGQGTQVTVSS | high polyreactivity |
| QVQLVESGGGLVQAGGSLRLSCAASGSTSPINAMRWYRQAPGKERELVAVISSSGGRTYYADSVKGRFTISRDNAKNTVYLQMNSLKPEDTAVYYFDKRFSRRQPDYDYWGQGTQVTVSS | high polyreactivity |
| QVQLVESGGGLVQAGGSLRLSCAASGRIFKVYAMGWYRQAPGKERELVATISRGGSTYYADSVKGRFTISRDNAKNTVYLQMNSLKPEDTAVYYCAKQRERYYWFGAWSYDYWGQGTQLTVSS | low polyreactivity |
| KVQLVESGGGLVQAGGSLRLSCDASGSIFTLNAMGWYRQAPGKARELVAAISSGGGTYYSDSVKGRFTISRDNAKNTVYLQMNTLKPEDSAVYYCAAEHYILDDYLCDYDYWGQGTQVTVSS | high polyreactivity |
| QVQLVESGGGLVQAGGSLRLSCAASGRIFGSYVMGWYRQAPGKEMELVATISWSGGSTYYADSVKGRFTISRDNAKNTVYLQMNSLKPEDTAVYYCAAVSRYSHSPYHYDYWGQGTQVTVSS | high polyreactivity |

| Sequence | polyreactivity (PSR sort gate) |
| --- | --- |
| QVQLVESGGGLVQAGGSLRLSCAASGFIFEPNAMGWYRQAPGKERELVAAISWSGGSTYYADSVKGRFTISRDNAKNTVYLQMNSLKPEDTAVYYCNAAVRGVGELDYWGQGTQVTVSS | high polyreactivity |
| QVQLVESGGGLVQAGGSLRLSCAASGFIFSYYVMGWYRQAPGKERELVAAINESGGRTYYADSVKGRFTISRDNAKNTVYLQMNSLKQEDTAVYYCAASVLNKIQGYRDYYWGQGTKVTVSS | low polyreactivity |
| QVQLVESGGGLVQAGGSLRLSCAASGFIFSKYVMGWSRQAPGKERELVAAITRSGSSTYYADSVKGRFTISRDNAKNTVYLQMNSLKPEDTAVYYCAADGGYYDDDYWGQGTQVTVSS | high polyreactivity |
| QVQLVESGGGLVQAGGSLRLSCAASGRTFWFYSMAWYRQAPGKERELVATINYRGGTTYYADSVKGRFTISRDNAKNTVYLQMNSLKPEDTAVYYCAVRPTRTFIYDYWGQGTQVTVSS | high polyreactivity |
| QVQLVESGGGLVQAGGSLRLSCAASGSTRRYYAMGWYRQAPGKERELVAAITRLGSTNYADSVKGRFTISRDNAKNTVYLQMNSLKPEDTAVYYCNTRWRYRPYRYRGDGGDYWAQGTQVTVSS | high polyreactivity |
| QVQLVESGGGLVQAGGSLRLSCAASGSIFRAYAMGWSRQAPGKERELVAAISIGGRTYYADSVKGRFTISRDNAKNTVYLQMNSLKPEDTAVYYCAAVRSYVKGGMYYWGQGTQVTVSS | low polyreactivity |
| QVQLVESGGGLVQAGGSLRLSCAASGRTFLGYAMGWSRQAPGKERELVAAISTGGGRTYYADSVKGRFTISRDNAKNTVYLQMNSLKPEDTAVYYCATVPRHGAPTTFNYWGQGTQVTVSS | high polyreactivity |
| QVQLVESGGGLVQAGGSLRLSCAASGLTFYKNAMGWYRQPPGKERELGAVISSSGGSTYYADSVKGRFTISRDNAKNTVYLQMKSLKPEDTAVYYSARDLYTEYRWGRLTYDYWGQGTQVTVSS | low polyreactivity |
| QVQLVESGGGLVQAGGSLRLSCAASGRIFKIYAMGWYRQAQGKERELVAAISRGVRTYYADSVKGRFTISRDNAKNTVYLQMNSLKPEDTAVYYCAADLLISPEFYYWGQGTQVTVSS | high polyreactivity |
| QVQLVESGGGLVQAGGSLRLSCAASGSTFRSNAMGWYRQAPGKERELVAAISSRVGTTYYADSVKGRFTISRDNAKNTVYLQMNSLKPEDTAVYYCAAQGWRYYRTVVPMDYWGQGTQVTVSS | low polyreactivity |
| QVHIVESGGGLDQAGGSLRLSCAASGFTFNAYAMGWYRQAPGKERELVAAISGRGSSTYYADSVKGRFTISRDNAKNTVYLQMNSLKPEDTEVYYCATKFYYQYPYRGDYWGQGTEVTVSS | high polyreactivity |
| QVQLVESGGGLVQAGGSLRLSCAASGFTFRYYAMGWYRQAPGKERELVAGISSRGGSTYYADSVKGRFTISRDNAKNTDYLQMNSLKTEDTAVYYCATERFLLGLGYDYWGQGTQVTVSS | high polyreactivity |
| QVQLVESGGGLVQAGGSLRLSCAASGSTYRYVMGWYRQAPGKERELVAAITYTGGSTYYADSVKGRFTISRDNAKNTVYLQMNSLKPEDTAVYYCAASRYYTFDYWGQGTQVTVSS | high polyreactivity |
| QVQLVESGGGLVQAGGSLRLSCAASGSIFNTYAMGWYRQAPGKERELVAAISRSGDSTYYADSVKGRFTISRDNAKNTVYLQMNSLKPEDSAVYYCATGRTDHGYYYWGQGTQVTVSS | high polyreactivity |
| QVQLVESGGGLVQAGGSLRLSCAASGLTFPRYTMGWYRQPPGKERELVAAISSSTGTTNYADSVKGRFTISRDNAKNTVYLQMNSLKPEDTAVYYCAKRVSSWLGFHLDYWGQGTQVTVSS | low polyreactivity |
